Measurements taken from US20230008090A1 (WUXI BIOLOGICS IRELAND, published 2023).

What was measured:
[1] = target: T1, human CD3 on Jurkat.2B8 (CD3+/EGFR-) cells (human, UniProt P07766 23-207); assay: FACS affinity on Jurkat.2B8 cells, quantitative beads
T1 construct: whole, on cells; CD3 complex on cells; also called hCD3
Procedure: Tested antibodies were serially diluted in wash buffer (1×PBS/1% BSA) and incubated with cells at 4° C. for 1 h. […] The cells were then washed once and re-suspended in 1×PBS/1% BSA, and analyzed by flow cytometry. Fluorescence intensity will be converted to bound molecules/cell based on the quantitative beads (Quantum™ MESF Kits, Bangs Laboratories, Inc.).

[2] = target: T1, human CD3 on Jurkat.2B8 (CD3+/EGFR-) …; assay: flow cytometry on Jurkat.2B8 (CD3+/EGFR-) cells
Procedure: Binding of EGFR×CD3 bispecific antibodies to human CD3 and EGFR expressing cells was determined by flow cytometry.
(§1) After washing twice with cold PBS supplemented with 1% bovine serum albumin (wash buffer), cell surface bound antibody was detected by incubating the cells with Fluorescence-labeled anti-human IgG antibody for 30 minutes at 4° C. Cells were washed twice in the same buffer and the mean fluorescence (MFI) of stained cells was measured using a FACS Canto II cytometer (BD Biosciences). Wells containing no antibody or secondary antibody only were used to establish background fluorescence. Four-parameter non-linear regression analysis was used to obtain EC₅₀ values for cell binding using GraphPad Prism software.

[3] = target: T2, cynomolgus monkey CD3 on cynomolgus monkey PBMC / T cells (cynomolgus monkey, UniProt Q95LI5 22-198); assay: flow cytometry on cyno T cells (cynomolgus monkey PBMC)
T2 construct: whole, on cells; CD3 complex on primary cells; also called cyno CD3
T2 sequence (Q95LI5 22-198): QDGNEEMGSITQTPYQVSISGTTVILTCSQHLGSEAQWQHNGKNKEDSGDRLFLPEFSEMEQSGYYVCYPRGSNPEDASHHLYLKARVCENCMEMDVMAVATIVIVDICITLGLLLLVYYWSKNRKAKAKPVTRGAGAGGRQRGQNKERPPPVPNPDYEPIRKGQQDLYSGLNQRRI
Procedure: (§2) Binding of EGFR×CD3 bispecific antibodies to cynomolgus monkey CD3 and EGFR expressing cells was determined by flow cytometry.
as §1, with “Briefly, 1×10⁵ cynomolgus monkey PBMC(CD3+/EGFR−) cells or CHOK1-cynoPro1 (EGFR+/CD3−) cells were incubated for 60 minutes at 4° C. with serial dilutions of EGFR×CD3 bispecific or hIgG4 isotype control antibodies. After” for “After”

[4] = target: T3, cynomolgus monkey EGFR on CHOK1-cynoPro1 (EGFR+/CD3-) cells (cynomolgus monkey, UniProt A0A2K5WK39 25-1210); assay: flow cytometry on CHOK1-cynoPro1 cells
T3 construct: whole, on cells; also called cyno EGFR
Procedure: as §2
as §1, with “Briefly, 1×10⁵ cynomolgus monkey PBMC(CD3+/EGFR−) cells or CHOK1-cynoPro1 (EGFR+/CD3−) cells were incubated for 60 minutes at 4° C. with serial dilutions of EGFR×CD3 bispecific or hIgG4 isotype control antibodies. After” for “After”

T1 sequence (P07766 23-207): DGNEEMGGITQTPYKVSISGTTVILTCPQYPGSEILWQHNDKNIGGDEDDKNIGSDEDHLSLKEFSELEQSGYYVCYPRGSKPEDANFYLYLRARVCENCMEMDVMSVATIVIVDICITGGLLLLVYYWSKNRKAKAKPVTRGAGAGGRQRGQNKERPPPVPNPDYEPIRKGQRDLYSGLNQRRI

| Binder | Kd [1] [nM] | EC50 [2] [nM] | EC50 [3] [nM] | EC50 [4] [nM] |
| --- | --- | --- | --- | --- |
| W3448-T3U1.E17R-1.uIgG4V9 (bispecific antibody, Four-chain Ig-like bispecific: anti-CD3 Fab arm (T3) and anti-EGFR chimeric Fab arm with TCR constant domains (U1); IgG4 Fc with S228P, F234A, L235A and knob/hole mutations already contained in the full-length entries; also called lead BsAb; anti-CD3/anti-EGFR bispecific antibody) heavy 1: QVQLVQSGAEVKKPGSSVKVSCKASGFAFTDYYIHWVRQAPGQGLEWMGWISPGNVNTKYNENFKGRVTITADKSTSTAYMELSSLRSEDTAVYYCARDGYSLYYFDYWGQGTLVTVSSASTKGPSVFPLAPCSRSTSESTAALGCLVKDYFPEPVTVSWNSGALTSGVHTFPAVLQSSGLYSLSSVVTVPSSSLGTKTYTCNVDHKPSNTKVDKRVESKYGPPCPPCPAPEAAGGPSVFLFPPKPKDTLMISRTPEVTCVVVDVSQEDPEVQFNWYVDGVEVHNAKTKPREEQFNSTYRVVSVLTVLHQDWLNGKEYKCKVSNKGLPSSIEKTISKAKGQPREPQVYTLPPCQEEMTKNQVSLWCLVKGFYPSDIAVEWESNGQPENNYKTTPPVLDSDGSFFLYSRLTVDKSRWQEGNVFSCSVMHEALHNHYTQKSLSLSLGK light 1: not shown heavy 2: QVQLQESGPGLVKPSETLSLTCTVSGGSVSSGDYYWTWIRQSPGKGLEWIGHIYYSGNTNYNPSLKSRLTISIDTSKTQFSLKLSSVTAADTAIYYCVRDRVTGAFDIWGQGTMVTVLEDLKNVFPPEVAVFEPSEAEISHTQKATLVCLATGFYPDHVELSWWVNGKEVHSGVCTDPQPLKEQPALQDSRYALSSRLRVSATFWQNPRNHFRCQVQFYGLSENDEWTQDRAKPVTQIVSAEAWGRYGPPCPPCPAPEAAGGPSVFLFPPKPKDTLMISRTPEVTCVVVDVSQEDPEVQFNWYVDGVEVHNAKTKPREEQFNSTYRVVSVLTVLHQDWLNGKEYKCKVSNKGLPSSIEKTISKAKGQPREPQVCTLPPSQEEMTKNQVSLSCAVKGFYPSDIAVEWESNGQPENNYKTTPPVLDSDGSFFLVSRLTVDKSRWQEGNVFSCSVMHEALHNHYTQKSLSLSLGK light 2: DIQMTQSPSSLSASVGDRVTITCQASQDISNYLNWYQQKPGKAPKLLIYDASNLETGVPSRFSGSGSGTDFTFTISSLQPEDIATYFCQHFDHLPLAFGGGTKVEIKPDIQNPDPAVYQLRDSKSSDKSVCLFTDFDSQTQVSQSKDSDVYITDKCVLDMRSMDFKSNSAVAWSQKSDFACANAFQNSIIPEDTFFPSPESS | 4.7 | 20.8 | 26.4 |  |
| Panitumumab (antibody, human IgG2, V domains shown, the VH end in the benchmark IgG may differ; also called Anti-EGFR antibody; anti-EGFR mAb) VH: QVQLQESGPGLVKPSETLSLTCTVSGGSVSSGDYYWTWIRQSPGKGLEWIGHIYYSGNTNYNPSLKSRLTISIDTSKTQFSLKLSSVTAADTAIYYCVRDRVTGAFDIWGQGTMVTV VL: DIQMTQSPSSLSASVGDRVTITCQASQDISNYLNWYQQKPGKAPKLLIYDASNLETGVPSRFSGSGSGTDFTFTISSLQPEDIATYFCQHFDHLPLAFGGGTKVEIK |  |  |  | 0.5 |
| W3311-2.306.4-z1-uIgG1K (antibody, V domains shown, also called humanized anti-CD3 antibody; Humanized anti-CD3 mAb) VH: QVQLVQSGAEVKKPGSSVKVSCKASGFAFTDYYIHWVRQAPGQGLEWMGWISPGNVNTKYNENFKGRVTITADKSTSTAYMELSSLRSEDTAVYYCARDGYSLYYFDYWGQGTLVTVSS VL: DIVMTQSPDSLAVSLGERATINCKSSQSLLNSRTRKNYLAWYQQKPGQPPKLLIYWASTRQSGVPDRFSGSGSGTDFTLTISSLQAEDVAVYYCTQSHTLRTFGGGTKVEIK |  | 0.15 | 0.21 |  |
